Assay results reported in patent US20230331827A1, “POTASSIUM CHANNEL INHIBITORS” (priority 2017, published 2023).

B1: KB_A12_ShK: ShK toxin in VL CDR2 of KB_A12, IgG1 (antibody, V domains shown)
VH: EVQLVESGGGLVRPGGSLRLSCAASGFTFSSYAMSWVRQAPGKGLEWVSAISGSGGSTYYADSVKGRFTISRDNTKNSLYLQMTSLRADDTAFYYCVKDFGPGYGTGWFDYWGPGTLVTVSS
VL: QSVLTQPPSVSEAPRQRVTITCSGSSSNIGNNAVNWYQQLPGKAPKLLIYAAGRRSCIDTIPKSRCTAFQCKHSMKYRLSFCRKTCGTCANSGVSDRFSAAKSGTSASLAINGLRSEDEADYYCAAWDDSLNGYVFGTGTKLTVLG
B2: KB_A12: EETI-II knottin fused into VL CDR2, D1A12 VH; parental KnotBody, isotype control (antibody, V domains shown)
VH: EVQLVESGGGLVRPGGSLRLSCAASGFTFSSYAMSWVRQAPGKGLEWVSAISGSGGSTYYADSVKGRFTISRDNTKNSLYLQMTSLRADDTAFYYCVKDFGPGYGTGWFDYWGPGTLVTVSS
VL: QSVLTQPPSVSEAPRQRVTITCSGSSSNIGNNAVNWYQQLPGKAPKLLIYAAGRCPRILMRCKQDSDCLAGCVCGPNGFCGANSGVSDRFSAAKSGTSASLAINGLRSEDEADYYCAAWDDSLNGYVFGTGTKLTVLGQP

How the values were obtained:
[1] = test system: activated T cells in PBMCs; assay: Cytokine and Granzyme-B secretion by anti-CD3 activated PBMCs (Luminex); type: cell-based; settings: 100 nM, 72 hours, 5 donors, compared to KB_A12
Description: Methods for measuring cytokine release from T cells are well known to those skilled in the art (eg Tarcha et al, (2012) J Pharmacology and Experimental Therapeutics, 342 p642-653). Peripheral blood mononuclear cells (PBMCs) were isolated from 5 healthy donors and were simulated by culturing in 96-well plates pre-coated with 500 ng/ml of the anti-CD3 antibody OKT3 (ebioscience, Cat. No. 16-0037-85). PBMCs were suspended at 2 × 10^6 cells/ml and 100 ul of cells suspension mixed with 100 ul of test sample (KB_A12_ShK) or positive control (free ShK toxin, Alomone labs, STS-400) or negative control (parental KnotBody KB_A12) at a final concentration of 100 nM. (Samples were in triplicate for KB_A12_ShK or duplicate for KB_A12 and free ShK). Cells were incubated at 37° C. for 72 hours, centrifuged at 1500 rpm for 5 mins at room temperature before removing 150 ul of supernatant. After 72 hours incubation, the concentration of cytokines and Granzyme-B was determined using a Luminex bead based assay according to manufacturers instructions (Thermo Fisher).

in vitro rat BBB model = assay: In vitro rat BBB model transcytosis, sandwich ELISA of Fab in lower chamber; type: in vitro ADME; settings: test Fabs as oligoclonal mixes of 3 per well at 2 µM, controls 1 µM, value is per well
Description: In order to assess the ability of these KnotBodies to cross the BBB, a ready to use in vitro rat BBB model system (Pharmacocell, Cat. No. RBT-24H) was used. In this model system rat brain endothelial cells were co-cultured with pericytes and astrocytes to mimic the in vivo BBB anatomy (Nakagawa, S. et al. (2009) Neurochem. Int. 54, 253-263). The in vitro rat BBB kit was cultured according to manufacturer’s instructions and transendothelial electrical resistance (TEER) was measured prior to testing of KnotBodies to verify the integrity of the barrier. […] 21 KnotBody Fabs were tested for their ability to cross the in vitro BBB model system. […] The parent KnotBody KB_A12 was used as a negative control. Both positive and negative controls were expressed and purified in the Fab format as described above. […] The concentration of transcytosed Fabs in the lower chamber (referred as brain side) was determined using a sandwich ELISA. In this ELISA, Fabs were captured using an anti-CH1 antibody (provided by Hybridoma Reagent Laboratories) and detected using rabbit anti-human IgG Kappa light chain antibody (Abcam, Cat. No. ab195576) or anti-human IgG Lambda light chain antibody (Abcam, Cat. No. ab124719) followed by europium conjugated anti-rabbit antibody (Perkin Elmer, Cat. No. AD0105). […]

Row | Molecule | Secretion of Granzyme B [1] | Secretion of Interferon gamma [1] | Secretion of TNF-alpha [1] | Secretion of interleukin-17A [1] | % transcytosis after 6h (in vitro rat BBB model) [%]
1 | B1 | reduced | reduced | reduced | reduced | –
2 | B2 | – | – | – | – | 0.1
